From US12156889B2, “Methods of administering mesenchymal stem cells activated by cytokines for enhancing immunosuppression” (Rutgers, The State University of New Jersey, priority 2012, dated 2024)

Test system: MSCs
Assay: Gene expression in cytokine-treated MSCs (quantitative RT-PCR, Western Blot)
Format: cell-based, mouse
Procedure: FIG. 6. IL-17A greatly enhances inflammatory cytokine-induced iNOS expression in mouse BM-MSCs at both mRNA and protein levels. BM-MSCs were treated with the indicated cytokines. The iNOS gene expression was measured by real-time PCR.
FIGS. 10A, 10B, 10C, 10D and 10E. (FIGS. 10A and 10C). MSCs were cultured with different combinations of inflammatory cytokines IFNγ, TNFα, IL-17A (10 ng/ml) for 12 hr, and then cells were harvested for RNA extraction. The mRNA expression levels of inflammatory molecules iNOS, IL-6, CXCL1 (FIG. 10A) and chemokines CCL2, CCL5, CXCL9, CXCL10 (FIG. 10C) were detected by quantitative RT-PCR. (FIG. 10B). MSCs were cultured with different combinations of inflammatory cytokines IFNγ, TNFα, IL-17A (10 ng/ml) for 24 hr, and the protein level of iNOS was detected by Western Blot. (FIG. 10D). MSCs were supplemented with Sup-CD3 or Sup-CD3 pretreated with antibodies against IL-17A, and cells were collected for RNA extraction after 12 hr. The expression of iNOS, IL-6, CXCL1, CCL2, CCL5, CXCL9 and CXCL10 were measured by quantitative RT-PCR. Sup-CD3: supernatant from splenocytes activated by anti-CD3 and anti-CD28. (FIG. 10E). MSCs were treated with Sup-CD3 or Sup-CD3 pretreated with antibodies against IL-17A, and the protein level of iNOS was assessed by Western Blot after 24 hr. mRNA expression values are means±SEM of three wells from a representative of three independent experiments. Western Blot data is from a representative of three independent experiments.
FIGS. 11A, 11B, 11C and 11D. (FIG. 11A) MSCs with Act1 knockdown or control were treated with IL-17A for different time and the phosphorylation levels of IκBα, ERK, p65, JNK were assessed by Western Blot. (FIG. 11B) MSCs with Act1 knockdown or control were treated with IFNγ and TNFα with or without IL-17A (all cytokines supplemented at 5 ng/ml) the protein levels of iNOS and Act1 were assessed by Western Blot. (FIG. 11C) MSCs (Act1 knockdown or control) were treated with different cytokines 12 hr, and iNOS expression was measured by quantitative RT-PCR. mRNA expression values are means±SEM. (FIG. 11D) MSCs (Act1 knockdown or control) were first treated with IFNγ and TNFα with or without IL-17A (all cytokines supplemented at 5 ng/ml) for 12 hr, and then cocultured with T cell hybridoma A1.1 cells at a ratio of 1:10 for 12 hr. T cell proliferation was measured by 3H-Tdr incorporation, taking the proliferation level of A1.1 alone as 100%.
FIGS. 12A and 12B. (FIG. 12A). WT MSCs or auf1^−/− MSCs were treated with IFNγ and TNFα, or together with IL-17A (all cytokines supplemented at 10 ng/ml) for 12 hr, and iNOS, IL-6 and CXCL1 expression was measured by quantitative RT-PCR. mRNA expression values are means±SEM of three wells from a representative of three independent experiments. (FIG. 12B). WT MSCs were treated with IFNγ and TNFα (10 ng/ml), or together with different concentrations of IL-17A; auf1^−/−-MSCs were treated with IFNγ and TNFα (10 ng/ml), or together with 10 ng/ml of IL-17A. After 24 hr, cells were harvested for detection of iNOS by Western Blot. Western blot is a representative of three independent experiments.
RNA isolation and gene expression assay-Total RNA was isolated with the RNAprep Pure Cell/Bacteria Kit. First-strand cDNA synthesis was performed with a cDNA synthesis kit. The levels of mRNAs were measured by quantitative RT-PCR (7900 HT; Applied Biosystems, Foster City, CA) with SYBR Green Master Mix and normalized to the level of β-actin mRNA. Sequences of forward and reverse primer pairs are as follows:
Western blotting analysis-Cells were washed twice with ice-cold PBS, harvested and lysed in the RIPA buffer (Millipore, Temecular, CA) containing a cocktail of protease inhibitors (Roche, Natley, NJ) and PMSF (Sigma) for 30 min on ice. Lysates were clarified by centrifugation at 16,000 g for 15 minutes. Protein concentration of the supernatant was determined by the Bradford assay (Bio-Rad, Hercules, CA). […]

[1] = together with IFNγ and TNFα, 10 ng/ml, 12 hr

B1: IL-17A: recombinant mouse interleukin 17A (protein)
chain: AAIIPQSSACPNTEAKDFLQNVKVNLKVFNSLGAKVSSRRPSDYLNRSTSPWTLHRNEDPDRYPSVIWEAQCRHQRCVNAEGKLDHHMNSVLIQQEILVLKREPESCPFTFRVEKMLVGVGCTCVASIVRQAA
Q: Which results are given for B1?
A: IFNγ+TNFα induced iNOS expression in Act1 knockdown MSCs (5 ng/ml): could not upregulate; expression of CCL5, CCL2, CXCL9, CXCL10 (addition to IFNγ and TNFα, 10 ng/ml, 12 hr): unaffected; expression of iNOS at mRNA and protein levels in BM-MSCs (in the presence of IFNγ and TNFα): greatly enhanced; iNOS, IL-6, and CXCL1 mRNAs in wild-type MSCs [1]: significant increases; increase of iNOS, IL-6, and CXCL1 mRNA abundance in auf1−/− MSCs [1]: less than twofold; IL-17A induction of iNOS expression in MSCs with AUF1 knocked down with siRNA (with IFNγ+TNFα): largely abrogated; iNOS expression in wild type MSCs (with IFNγ+TNFα): strikingly induced
